# Measurements as given in paper PMC5123727 (International Journal of Nanomedicine, 2016).
# Entries after “also recorded” stand apart in the source; their conditions may differ. Peptide text beside a SMILES is read from it. * marks the point of attachment. X1 = CCc1c2c(nc3ccc(OC(=O)[C@H]4CC[C@H](CNC(=O)[C@H]5CC[C@H](CN6C(=O)CC(*)C6=O)CC5)CC4)cc13)-c1cc3c(c(=O)n1C2)COC(=O)[C@]3(O)CC
# Tests used:
# [1] = Phase I plasma pharmacokinetics of DTS-108, SN-38 and SN-38G; assay type: in vivo; settings: human, iv
# [2] = tested on: advanced or metastatic solid tumors; assay: Tumor response; assay type: in vivo, human
# dog basophils = settings: in vitro, preclinical, ref not given; cited from earlier work
# [3] = dogs, 4.5–53 mg free base/kg; preclinical, ref not given; cited from earlier work
# cardiac repolarization = assay: Cardiovascular effects: QRS and QTc intervals; assay type: in vivo, human
# Solubility in water = assay type: physicochemical
# human basophils = settings: in vitro, preclinical, ref not given; cited from earlier work
# [4] = Phase I dose escalation: toxicity; assay type: in vivo, human; settings: for Other toxicities: Type of toxicity and grade: UR unrelated, R probably related
# [5] = dose 313 mg/m^2, Hyperbilirubinemia (UR)
# [6] = drug-related, repeated dosing, all doses, n=42
smiles,measurement,setting,value
CCc1c2c(nc3ccc(OC(=O)[C@H]4CC[C@H](CNC(=O)[C@H]5CC[C@H](CN6C(=O)CC(SC[C@H](N)C(=O)N[C@H](C(=O)N[C@@H](CCCCN)C(=O)N[C@@H](CCCNC(=N)N)C(=O)NCC(=O)N[C@@H](CC(C)C)C(=O)N[C@@H](CCCCN)C(=O)N[C@@H](CC(C)C)C(=O)N[C@@H](CCCNC(=N)N)C(=O)N[C@@H](Cc7c[nH]cn7)C(=O)N[C@H](C(=O)N[C@@H](CCCNC(=N)N)C(=O)N7CCC[C@H]7C(=O)N[C@@H](CCCNC(=N)N)C(=O)N[C@H](C(=O)N[C@H](C(=O)N[C@@H](CCCNC(=N)N)C(=O)N[C@@H](CCSC)C(=O)N[C@@H](CC(=O)O)C(=O)N[C@H](C(=O)O)C(C)C)[C@@H](C)O)C(C)C)C(C)C)C(C)C)C6=O)CC5)CC4)cc13)-c1cc3c(c(=O)n1C2)COC(=O)[C@]3(O)CC (stereo partly drawn) [DTS-108] (H-C(X1)VKRGLKLRHVRPRVTRMDV-OH),Tmax,[1]; 3 mg/m2,0.25 h
same,Tmax,[1]; 6 mg/m2,1 h
same,Tmax,[1]; 12 mg/m2,0.97 h
same,Tmax,[1]; 24 mg/m2,0.98 h
same,Tmax,[1]; 32 mg/m2,1.11 h
same,Tmax,[1]; 42 mg/m2,1.32 h
same,Tmax,[1]; 56 mg/m2,0.96 h
same,Tmax,[1]; 75 mg/m2,1.44 h
same,Tmax,[1]; 100 mg/m2,1.31 h
same,Tmax,[1]; 133 mg/m2,0.99 h
same,Tmax,[1]; 177 mg/m2,1.45 h
same,Tmax,[1]; 235 mg/m2,1.27 h
same,AUC(0-inf),[1]; 313 mg/m2,439 µg·h/mL
same,Tmax,[1]; 313 mg/m2,1.68 h
same,Tmax,[1]; 416 mg/m2,2.47 h
same,objective response,[2]; 42 patients,No patient
same,median progression-free survival,[2]; 95% CI 3–17 months,11 months
same,patients with stable disease status maintained for six cycles or longer,[2]; in vivo,seven
same,histamine release,dog basophils,histamine release induced
same,resolution of immediate effects resembling an infusion reaction,[3],resolved spontaneously within a few hours
same,severity of immediate effects resembling an infusion reaction,[3],moderate severity
same,changes in QRS morphology or interval measurements,cardiac repolarization; all doses,no clinically significant drug-related changes
same,instances of postdose QTc >450 ms,cardiac repolarization; all doses,four
same,instances of postdose QTc >500 ms,cardiac repolarization; all doses,no instances
same,QTc at the end of dosing,"cardiac repolarization; one patient, 416 mg/m^2, cycle 3, predose QTc 391 ms",484 ms
same,solubility in water,Solubility in water,highly soluble
same,histamine release,human basophils,histamine release induced
same,patients with Grade 3 neutropenia,[4]; 235 mg/m^2,one of four
same,patients with Grade 3 neutropenia,[4]; 313 mg/m^2,four of six
same,patients with no dose-limiting neutropenia,[4]; 313 mg/m^2,five of the six
same,patients with Grade 3 neutropenia,[4]; 416 mg/m^2,four of six
same,patients with dose reductions to 313 mg/m^2,[4]; 416 mg/m^2,three of six
same,patients with grade 4 neutropenia,[4]; 416 mg/m^2,three out of six
same,patients with infusion reactions,"[4]; Cohort 11, 177 mg/m^2",all three
same,nephrotoxicity,[4]; all doses,no evidence of nephrotoxicity
same,dose-limiting toxicity (DLT),[4]; cycle 1,Neutropenia
same,"Other toxicities Grades 1–2, patients","[4]; dose 32 mg/m^2, Hyperbilirubinemia (UR)",1
same,"Other toxicities Grades 1–2, patients","[4]; dose 32 mg/m^2, Respiratory and thoracic disorder (UR)",1
same,Other toxicities: Type of toxicity and grade,[4]; dose 32 mg/m^2,Respiratory and thoracic disorder (UR); also recorded: Hyperbilirubinemia (UR)
same,"Other toxicities Grades 1–2, patients","[4]; dose 42 mg/m^2, Retroperitoneal hematoma (UR)",1
same,Other toxicities: Type of toxicity and grade,[4]; dose 42 mg/m^2,Retroperitoneal hematoma (UR)
same,"Other toxicities Grades 1–2, patients","[4]; dose 56 mg/m^2, Acute pancreatitis (UR)",1
same,"Other toxicities Grades 1–2, patients","[4]; dose 56 mg/m^2, Hyperbilirubinemia (UR)",1
same,Other toxicities: Type of toxicity and grade,[4]; dose 56 mg/m^2,Acute pancreatitis (UR); also recorded: Hyperbilirubinemia (UR)
same,"Neutropenia All grades, patients","[4]; dose 75 mg/m^2, 3 patients",1
same,"Neutropenia All grades, patients","[4]; dose 100 mg/m^2, 3 patients",1
same,"Other toxicities Grades 1–2, patients","[4]; dose 100 mg/m^2, Complete left lung atelectasy (UR)",1
same,Other toxicities: Type of toxicity and grade,[4]; dose 100 mg/m^2,Complete left lung atelectasy (UR)
same,"Neutropenia All grades, patients","[4]; dose 133 mg/m^2, 4 patients",3
same,"Other toxicities Grades 1–2, patients","[4]; dose 133 mg/m^2, Hyperbilirubinemia (UR)",1
same,Other toxicities: Type of toxicity and grade,[4]; dose 133 mg/m^2,Hyperbilirubinemia (UR)
same,"Neutropenia All grades, patients","[4]; dose 177 mg/m^2, 3 patients",1
same,Other toxicities: Type of toxicity and grade,[4]; dose 177 mg/m^2,"Vomiting (R), diarrhea (R), and nausea (R)"
same,"Other toxicities Grades 1–2, patients","[4]; dose 177 mg/m^2, Vomiting (R), diarrhea (R), and nausea (R)",1
same,"Neutropenia All grades, patients","[4]; dose 236 mg/m^2, 4 patients",1
same,"Neutropenia Grades 3–4, patients","[4]; dose 236 mg/m^2, 4 patients",1
same,"Other toxicities Grades 1–2, patients","[4]; dose 236 mg/m^2, Edema of lower limb (UR)",1
same,Other toxicities: Type of toxicity and grade,[4]; dose 236 mg/m^2,Edema of lower limb (UR); also recorded: Vomiting (R) and diarrhea (R)
same,"Other toxicities Grades 1–2, patients","[4]; dose 236 mg/m^2, Vomiting (R)",1
same,"Other toxicities Grades 3–4, patients","[4]; dose 236 mg/m^2, Vomiting (R) and diarrhea (R)",1
same,"Neutropenia All grades, patients","[4]; dose 313 mg/m^2, 6 patients",6
same,"Neutropenia Grades 3–4, patients","[4]; dose 313 mg/m^2, 6 patients",4
same,"Other toxicities Grades 3–4, patients","[4]; dose 313 mg/m^2, Diarrhea (R)",1
same,"Other toxicities Grades 1–2, patients",[4]; [5],1
same,"Other toxicities Grades 3–4, patients",[4]; [5],1
same,Other toxicities: Type of toxicity and grade,[4]; dose 313 mg/m^2,Diarrhea (R); also recorded: Hyperbilirubinemia (UR)
same,"Neutropenia All grades, patients","[4]; dose 416 mg/m^2, 6 patients",6
same,"Neutropenia Grades 3–4, patients","[4]; dose 416 mg/m^2, 6 patients",4
same,Other toxicities: Type of toxicity and grade,[4]; dose 416 mg/m^2,"Vomiting (UR), pyrexia (UR), and chills (R)"
same,"Other toxicities Grades 1–2, patients","[4]; dose 416 mg/m^2, Vomiting (UR), pyrexia (UR), and chills (R)",1
same,Abdominal pain: Number of patients with ≥1 adverse event,[4]; [6],8
same,Abdominal pain: Total (%),[4]; [6],19.0%
same,Alanine aminotransferase elevation increased: Number of patients with ≥1 adverse event,[4]; [6],5
same,Alanine aminotransferase elevation increased: Total (%),[4]; [6],11.9%
same,Alopecia: Number of patients with ≥1 adverse event,[4]; [6],8
same,Alopecia: Total (%),[4]; [6],19.0%
same,Anemia: Number of patients with ≥1 adverse event,[4]; [6],13
same,Anemia: Total (%),[4]; [6],31.0%
same,Anorexia: Number of patients with ≥1 adverse event,[4]; [6],9
same,Anorexia: Total (%),[4]; [6],21.4%
same,Ascites: Number of patients with ≥1 adverse event,[4]; [6],5
same,Ascites: Total (%),[4]; [6],11.9%
same,Asthenia: Number of patients with ≥1 adverse event,[4]; [6],18
same,Asthenia: Total (%),[4]; [6],42.9%
same,Constipation: Number of patients with ≥1 adverse event,[4]; [6],6
same,Constipation: Total (%),[4]; [6],14.3%
same,Cough: Number of patients with ≥1 adverse event,[4]; [6],5
same,Cough: Total (%),[4]; [6],11.9%
same,Diarrhea: Number of patients with ≥1 adverse event,[4]; [6],17
same,Diarrhea: Total (%),[4]; [6],40.5%
same,Dyspnea: Number of patients with ≥1 adverse event,[4]; [6],9
same,Hypoalbuminemia: Number of patients with ≥1 adverse event,[4]; [6],5
same,Hypoalbuminemia: Total (%),[4]; [6],11.9%
same,Leukopenia: Number of patients with ≥1 adverse event,[4]; [6],6
same,Leukopenia: Total (%),[4]; [6],14.3%
same,Lymphopenia: Number of patients with ≥1 adverse event,[4]; [6],7
same,Lymphopenia: Total (%),[4]; [6],16.7%
same,Nausea: Number of patients with ≥1 adverse event,[4]; [6],18
same,Nausea: Total (%),[4]; [6],42.9%
same,Neutropenia: Number of patients with ≥1 adverse event,[4]; [6],8
same,Neutropenia: Total (%),[4]; [6],19.0%
same,Pyrexia: Number of patients with ≥1 adverse event,[4]; [6],7
same,Pyrexia: Total (%),[4]; [6],16.7%
same,Rash: Number of patients with ≥1 adverse event,[4]; [6],9
same,Rash: Total (%),[4]; [6],21.4%
same,Vomiting: Number of patients with ≥1 adverse event,[4]; [6],14
same,Vomiting: Total (%),[4]; [6],33.3%
same,Weight decreased >10%: Number of patients with ≥1 adverse event,[4]; [6],5
same,Weight decreased >10%: Total (%),[4]; [6],11.9%
same,recommended Phase II dose (RP2D),[4]; iv 2-hour infusion every 2 weeks,313 mg/m^2
same,maximum tolerated dose (MTD),"[4]; iv every 2 weeks, patients with advanced/metastatic solid tumors",313 mg/m^2
